The RNAGym collection of RNA variant scans (doi:10.1073/pnas.2313332121)

B1: TPR t1 (parent)
chain: GACCAAUCUGCCCUCAGAGCUCGAGAACAUCUUCGGAUGCAGAGGAGGCAGGCUUCGGUGGCGCGAUAGCGCCAACGUCCUCAACCUCCAAUGCAUCCCACCACAUGAUGAUGCCUGAAGAGCCUUGGUUUUUUG

Variants of: B1
Experiment: polymerase ribozyme fitness, log enrichment relative to wild type (log ratio); higher = more active; in vitro selection for triplet polymerase activity
Procedure, shortened: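 Streptavidin-bead capture of gel-excised extended constructs, followed by RT-PCR, closed a single triplicate in vitro selection round. That round began by annealing PCR-built, transcribed mutant libraries of each subunit of a heterodimeric triplet polymerase ribozyme with a biotinylated primer, the partner subunit and triplets, then incubating them frozen at −7 °C. After Illumina sequencing of inputs and outputs, genotypes needed ≥10 input reads and ≥1 read per output. Fitness is the base-2 logarithm of genotype enrichment over wild-type enrichment, using inverse-variance-weighted replicate averages.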

In order of falling “polymerase ribozyme fitness (log ratio)” value:
1. GACCAAUCUGGCCUCAGAGCUCGAGAACAUCUUCGGAUGCGGAGGAGGCAGGCUUCGGUGGCGCGAUAGCGCCAACGUCCUCAACCUCCAAUGCAUCCCACCACAUGAUGAUGCCUGAAGAGCCUUGGUUUUUUG [C11G A41G]  0.309
2. GACCAAUCUGGCCUCAGAGCUCGAGAACAUCUUCGGCUGCAGAGGAGGCAGGCUUCGGUGGCGCGAUAGCGCCAACGUCCUCAACCUCCAAUGCAUCCCACCACAUGAUGAUGCCUGAAGAGCCUUGGUUUUUUG [C11G A37C]  -0.179
3. GACCAAUCUGGCCUCAGUGCUCGAGAACAUCUUCGGAUGCAGAGGAGGCAGGCUUCGGUGGCGCGAUAGCGCCAACGUCCUCAACUUCCAAUGCAUCCCACCACAUGAUGAUGCCUGAAGAGCUUUGGUUUUUUG [C11G A18U C86U C124U]  -0.586
4. GACCAAUCUGGCCUCAGAGCUCGAGAACAUCUUCGGUUGCAGAGGAGGCAGGCUUCGGUGGCGCGAUAGCGGCAACGUCCUCAACCUCCAAUGCAUCCCACCACAUGAUGCUGCCUGAAGAGCCUUGGAUUCUUG [C11G A37U C72G A111C U129A U132C]  -0.79
5. GACCAAUCUGGCCUCAGAGCUCGAGAACGUCUUCGGAUGCAGAGGAGGCAGGCUUCGGUGGCGCGAUAGCGCCAACGUCCUCAACCUCCAAUGCAUCCCACCACAUGAUGAUGCCUGAAGAGCCUUGGUUUUUUG [C11G A29G]  -1.16
6. GACCAAUCUGGCCUCAGAGCUCGAGAACAUCUUCGGUUGCAGAGGAGGCAGGCUUCGGUUGCGCGAUAGCGCCAACCUCCUCAACCUCCAAUGCAUCCCACCACAUGAUGAUGCCUGAAGAGCCUUGGUUUUUUG [C11G A37U G60U G77C]  -1.22
7. GACCAAUCUGGCCUCAGUGCUCGAGAACAUCUUCGGAUGCAGAGGAGGCAGGCUUCGGUGGCGCGAUAGCGCCAACGUCCUCAACCUCCAAUGCAUCCCACCACAUGAUGAUGCCUGAAGAGCCUUGGUUUUUUG [C11G A18U]  -1.34
8. GACCAAUCUGGCCUCAGAGCUCGAGUACAUCUUCGGAUGCAGAGGAGGCAGGCUUCGGUGGCGCGAUAGCGCCAACGUCCUCAACCUCCAAUGCAUCCCACCACAUGAUGAUGCCUGAAGAGCCUUGGUUUUUUG [C11G A26U]  -1.77
9. GACCAAUCUGGCCUCAGAGCUCGAGAACAUCUUCGGCUGCAGAGGCGGCAGGCUUCGGUGGCUCGAUAGCGCCAACGUCCUCAACCUCCAAUGCAUCCCACCACAUGAUGAUGCCUGAAGAGUCUUGGUUUUUUG [C11G A37C A46C G63U C123U]  -1.9
10. GACCAAUCUGGCCUCAGAGCUCGAGAACUUCUUCGGAUGCAGAGGAGGCAGGCUUCGGUGGCGCGAUAGCGCCAACGUCCUCAACCUCCAAUGCAUCCCACCACAUGAUGAUGCCUGAAGAGCCUUGGUUUUUUG [C11G A29U]  -1.95
11. GACCAAUCUGGCCUCAGAGCUCGAGAACGUCUUCGGAUGCAGAGGAGGCAGGCUUCGGUGGCGCGAUAGCGCCAACGUCCUCAACCUCCAAUGGAUCCCACCACAUGAUGAUGCCUGAAGAGCCUUGGUUUUUUG [C11G A29G C94G]  -2.16
12. GACCAAUCUGGCCUCAGAGCUCGAGAACGUCUUCGGAUGCAGAGGAGGCAGGCUUCGGUGUCGCGAUAGCGCCAACGUCCUCAACCUCCAAUGGAUCCCACCACAUGAUGAUGCCUGAAGAGCCUUGGUUUUUUG [C11G A29G G61U C94G]  -2.6
13. GACCAAUCUGGCCUCAGAGCUCGAGAUCAUCUUCGGAUGCAGAGGACGCAGGCUUCGGUGGCGCGAUAUCGCCAACGUCCUCUACCUCCAAUGCAUCCCACCACAUGAUGAUGCCUGAAGAGCCUUGGUUUUUUG [C11G A27U G47C G69U A83U]  -2.78
14. GACCAAUCUGGCCUCUGAGCUCGAGAACAUCUUCGGAUGCAGAGGACGCAGGCUUCGGUAGCGCGAUAGCGCCAACGUCCUCAACCUCCAAUGCAUCCCACCACAUGAUGAUGCCUGAAGAGCCUUGGUUUUUUG [C11G A16U G47C G60A]  -3.03
15. GACCAAUCUGGCCUCAGAGCUCGAGAACUUCUUCGGAUGCAGAGGAGGCAGGCUUCGGUGGCGCGAUAGCGCCAACGUCCUCAACCUCCAAUGCAUCCCACCACAUGAUGAUGCCUCAAGAGCCUUGGUUUUUUG [C11G A29U G117C]  -3.19
16. GACCAAUCUGGCCUCAGAGCUCGAGCACAUCUUCGGAUGCAGAGGAGGCAGGCUUCGGUUGCGCGAUAGCGCCAACGUCCUCAACCUCCAAUGCAUUCCACCACAUGAUGAUGCCUGAAUAGCCUUGGUUUAUUG [C11G A26C G60U C97U G120U U132A]  -3.92
17. GACCAAUCUGGCCUCAGAGCUCGAGAACAUCUUCGGAUGCUGAGGAGGCAGGCUUCGGUGGCGCGAUACCGCCAACGUCCCCAACCUCCAAUGCAUCCCACCACAUGAUGAUGCCUGAAGAGCCUUGGUUUUUUG [C11G A41U G69C U81C]  -4.06
18. GACCAAUCUGGCCUCCGAGCUCGAGAACGUCUUCGGAUGCAGAGUAGGCAGGCUUCGGUGGCGCGAUAGCGCCAACGUCCUCAACCUCCAAUGCAUCCCACCACAUGAUGAUGCCUGAAGAGCCUUGGUUUUUUG [C11G A16C A29G G45U]  -4.19
19. GACCAAUCUGGCCUCAGAGCUCGAGAUCAUCUUCGGAUGCAGAGGAGGAAGGCUUCGGUGACGCGAUAGCGCCAACGUCCUCAGCCUCCAAUGCAUCCCACCACAUGAUGAUGCCUGAAGAGCCUUGGUUUUUUG [C11G A27U C49A G61A A84G]  -4.25
20. GACCAAUCUGACCUCAGAGCUCGAGAACAUCUUCGGAUGCAGAGGAGGCAGGCUUCGGUGGCGCGAUAGCGCCAACGUCCUCAACCUCCAAAGCAUCCCACCACAUGAUGAUGCCUGAAGAGCCUUGGUUUUUUG [C11A U92A]  -4.36
21. GACCAAUCUGGCCUCAGAGCUCGAGAACAUCUUCGGAUGCCGAGGAGGCAGGCUUUGGUGGCGCGAUAGCGUCAACGUCCUCAACCUCCAAUACAUCCCACCACAUGAUGAUGCCUGAAGAGGCUUGGUUUUUUU [C11G A41C C56U C72U G93A C123G G135U]  -4.47
